Reference: patent US10253086B2, “CD20 therapies, CD22 therapies, and combination therapies with a CD19 chimeric antigen receptor (CAR)-expressing cell” (Novartis AG, priority 2015, dated 2019)
Where a chain is given by its changes, count along the chain named.

B1: CD22-59: human CD22 scFv SEQ ID NO 134 (protein, listed as Homo sapiens)
scFv: EVQLQQSGPGLVKPSQTLSLTCAISGDSVLSNSDTWNWIRQSPSRGLEWLGRTYHRSTWYDDYASSVRGRVSINVDTSKNQYSLQLNAVTPEDTGVYYCARDRLQDGNSWSDAFDVWGQGTMVTVSSGGGGSGGGGSGGGGSQSALTQPASVSGSPGQSITISCTGSSSDIGGFNYVSWYQQHAGEAPKLMIYEVTNRPSGVSDRFSGSKSDNTASLTISGLQAEDEADYYCSSYASGSPLYVFGTGTKVTVLG
B2: CD22-57: human CD22 scFv SEQ ID NO 132 (protein, listed as Homo sapiens)
scFv: EVQLQQSGPGLVKPSQTLSLTCAISGDSVSNNNAAWNWIRQSPSRGLEWLGRTYHRSTWYNDYVGSVKSRITINPDTSKNQFSLQLNSVTPEDTAVYYCARETDYGDYGAFDIWGQGTTVTVSSGGGGSGGGGSGGGGSQSALTQPASVSGSPGQSITISCTGSRNDIGAYESVSWYQQHPGNAPKLIIHGVNNRPSGVFDRFSVSQSGNTASLTISGLQAEDEADYYCSSHTTTSTLYVFGTGTKVTVLG
B3: CD22-58: human CD22 scFv SEQ ID NO 133 (protein, listed as Homo sapiens)
scFv: EVQLQQSGPGLVNPSQTLSITCAISGDSVSSNSAAWNWIRQSPSRGLEWLGRTFYRSKWYNDYAVSVKGRITISPDTSKNQFSLQLNSVTPEDTAVYYCAGGDYYYGLDVWGQGTTVTVSSGGGGSGGGGSGGGGSQSALTQPASVSGSPGQSITISCTGSSSDVGGYNSVSWYQQHPGKAPKLMIYEVINRPSGVSHRFSGSKSGNTASLTISGLQAEDEADYYCSSYTSSSTYVFGTGTKVTVLG
B4: CD22-60: human CD22 scFv SEQ ID NO 135 (protein, listed as Homo sapiens)
scFv: EVQLQQSGPGLVKPSQTLSLTCAISGDSVLSNSDTWNWIRQSPSRGLEWLGRTYHRSTWYDDYASSVRGRVSINVDTSKNQYSLQLNAVTPEDTGVYYCARDRLQDGNSWSDAFDVWGQGTMVTVSSGGGGSGGGGSGSGGSQSALTQPASVSGSPGQSITFSCTGTSSDIGGYNYVSWYQQHPGKAPKLMIYEVSNRPSGVSNRFSGTKSGNTASLTISGLQAEDEADYYCSSYTSSSTLYVFGTGTKLTVLG
B5: CD22-61: human CD22 scFv SEQ ID NO 136 (protein, listed as Homo sapiens)
scFv: B4 scFv with E1Q, Q6E, F162I, I171V, T209S, L250V
B6: CD22-63: human CD22 scFv SEQ ID NO 138 (protein, listed as Homo sapiens)
scFv: B4 scFv with S139G, F162I, I171V, T209S, V243I, L250V
B7: CD22-62: human CD22 scFv SEQ ID NO 137 (protein, listed as Homo sapiens)
scFv: B4 scFv with S139G, F162I, I171V, E194D, T209S, L250V
B8: CD22-53: human CD22 CAR, scFv SEQ ID NO 131 (protein)
scFv: EVQLQQSGPGLVKPSQTLSLTCAISGDSVSSNSAAWNWIRQSPSRGLEWLGRTYYRSKWYSDYAVSVKSRITINPDTSKNQFSLQLNSVTPEDTAVYYCARDPYDFWSGYPDAFDIWGQGTMVTVSSGGGGSGGGGSGGGGSQSALTQPASVSGSPGQSITISCTGTSSDVGGYNYVSWYQQHPGKAPKVIISEVNNRPSGVSHRFSGSKSGNTASLTISGLQAEDEADYFCSSYTSGRTLYVFGTGSKVTVLG
B9: hCD22-10: human CD22 CAR (protein)
scFv: EVQLQQSGPGLVKPSQTLSLTCAISGDSVLSNSDTWNWIRQSPSRGLEWLGRTYHRSTWYDDYASSVRGRVSINVDTSKNQYSLQLNAVTPEDTGVYYCARDRLQDGNSWSDAFDVWGQGTMVTVSSGGGGSGGGGSGGGGSQSALTQPASVSGSPGQSITISCTGTSSDVGGYNYVSWYQQHPGKAPKLMIYDVSNRPSGVSNRFSGSKSGNTASLTISGLQAEDEADYYCSSYTSSSTLVYVFGTGTKVTVL
B10: hCD22-2: human CD22 CAR (protein)
scFv: EVQLQQSGPGLVKPSQTLSLTCAISGDSVSSNSAAWNWIRQSPSRGLEWLGRTYYRSKWYNDYAVSVKSRITINPDTSKNQFSLQLNSVTPEDTAVYYCARDLGWIAVAGTFDYWGQGTLVTVSSGGGGSGGGGSGGGGSQSALTQPASVSGSPGQSITISCTGTSSDVGGYNYVSWYQQHPGKAPKLMIYDVSKRPSGVSNRFSGSKSGNTASLTISGLQAEDEADYYCSSYTSSSLNHVFGTGTKVTVL
B11: hCD22-5: human CD22 CAR (protein)
scFv: EVQLVESGGGLVQPGRSLRLSCAASGFTFDDYAMHWVRQAPGKGLEWVSGISWNSGSIGYADSVKGRFTISRDNAKNSLYLQMNSLRAEDTALYYCAKDKGGGYYDFWSGSDYWGQGTLVTVSSGGGGSGGGGSGGGGSSSELTQDPAVSVALGQTVRITCQGDSLRSYYASWYQQKPGQAPVLVIYGKNNRPSGIPDRFSGSSSGNTASLTITGAQAEDEADYYCNSRDSSGWVFGGGTKLTVL
B12: hCD22-31: human CD22 CAR (protein)
scFv: QVQLVQSGAEVKKPGASVKVSCKASGYTFTSYDINWVRQATGQGLEWMGWMNPNSGNTGYAQKFQGRVTMTRNTSISTAYMELSSLRSEDTAVYYCARGDSNYWSYYGMDVWGQGTLVTVSSGGGGSGGGGSGGGGSGGGGSQSVLTQPRSVSGSPGQSVTISCTGTSSDVGGYNYVSWYQQHPGEAPKLIIYDADKRPSGISNRFSSGKSGNTASLTISGLQVEDEADYYCCSYAGGSTWVFGGGTKVTVL
B13: m971-HL: CD22 (m971-derived) CAR construct that served as positive control (antibody, V domains shown)
VH: QVQLQQSGPGLVKPSQTLSLTCAISGDSVSSNSAAWNWIRQSPSRGLEWLGRTYYRSKWYNDYAVSVKSRITINPDTSKNQFSLQLNSVTPEDTAVYYCAREVTGDLEDAFDIWGQGTMVTV
VL: DIQMTQSPSSLSASVGDRVTITCRASQTIWSYLNWYQQRPGKAPNLLIYAASSLQSGVPSRFSGRGSGTDFTLTISSLQAEDFATYYCQQSYSIPQTFGQGTKLEIK

System: CD22
Test: NFAT assay of CD22 CAR in JNL cells on antigen-coated plates
Type: cell-based, human
Conditions: plates coated with CD22-FL-Fc, CD22-D567-Fc, CD22-D67
Description: Several CD22 CAR constructs were functionally validated in an NFAT assay. Briefly the experiments were performed as follows. A lentiviral vector (pELPS) carrying a nucleic acid, encoding a CD22 CAR with a CD22-binding scFv domain was introduced by electroporation into a Jurkat T cell line modified to express luciferase under the control of an NFAT response element (JNL). The cells were cultured and allowed to express the CAR construct. The electroporated cells were applied to a plate coated with the target antigen (CD22). Detection of luciferase signal in the coated plate was indicative of binding activity of the CD22 CAR to its antigen, leading to activation of the T cells and expression of luciferase.
The results also indicate that the different scFvs compete with m971 to different extents.
FIG. 72 is a graph showing the activation (in RLU) of several CD22 CAR-expressing JNL cells including CD22-57, CD22-58, CD22-59, CD22-60, CD22-61, CD22-62, and CD22-63, the scFv sequences of which are provided herein. Three different target proteins (CD22-FL-Fc, CD22-D567-Fc, and CD22-D67) were used to coat the tissue culture plates; a negative control (Fc) was also included. A mesothelin binding CAR (Meso-G07) was used as a negative control. CD22-12 and CD22-53 were used as positive controls. […] Domain mapping was performed on CD22 binding domains. Three different forms of antigens were used: CD22 full-length with all 7 external domains, Domain567 (in which domains 1-4 were deleted) and Domain67 (in which domains 1-5 were deleted). While not wishing to be bound by theory, it appears that the binding of various CD22 clones maps to the epitopes illustrated in FIG. 75.
Two scFvs, named CD22-64 and CD22-65, were produced by affinity maturation of hCD22-12. CAR constructs containing these scFvs were tested for activity in an NFAT assay as described above. […] The bars in the figure represent, from left to right, CD22 full length-Fc; CD22 D567-Fc; and an Fc only negative control used for coating of the plates.

Molecule	function in NFAT assay
B1	functional
B2	functional
B3	functional
B4	functional
B5	functional
B6	functional
B7	functional

Same assay, conditions: with and without m971 scFv competitor

Molecule	antigen binding / activation (RLU) vs m971
B8	bind the antigen approximately as well as the m971 positive control

Target: recombinant human CD22-Fc (Homo sapiens, UniProt P20273)
Test: Surface expression of CD22 CAR in primary human T-cells (Protein-L, rhCD22-Fc)
Type: cell-based
Conditions: day 10, flow cytometry
Description: Primary human T-cells were activated with anti-CD3/antiCD28 stimulatory beads on day 0, followed by lentiviral transduction of specified CAR constructs on day 1. Cells were expanded in vitro until day, 10 at which point they were analyzed by flow cytometry for surface expression of CAR. Two different approaches were utilized to determine surface expression of CAR: Protein-L-biotin followed by streptavidin-PE, and recombinant human CD22-Fc followed by anti-Fc-alexafluor 488. […] CD22 CAR m971 served as a positive control for binding both Protein-L and hrCD22-Fc, and Isotype CAR with no specificity (anti-gH) served as a positive control for Protein-L. T cells expressing no CAR were used as a negative control.

surface expression of CAR	Molecule
positive surface expression	B9
positive surface expression	B10
positive surface expression	B11
positive surface expression	B12

System: Raji-Luc and Daudi-Luc
Test: IFN-gamma and IL-2 secretion by CD22 CAR primary T cells
Type: cell-based, human
Conditions: E:T 10 to 1, 20-hr co-culture
Description: CD22 CAR constructs were also tested for the ability to promote secretion of IFN-gamma and IL-2. Briefly, transduced primary T cells from healthy donors expressing the different CD22 CARs were co-cultured with the CD22-positive target cells Raji-Luc and Daudi-Luc as well as the negative control K562-Luc. T cells and target cell were cultured in an effector-to-target cell ratio (E:T) of 10 to 1. Supernatants were harvested after 20-hr co-culture. […] Similar results were observed when Nalm6-Luc, Pfeiffer-Luc, and K562-CD22-Luc, and SEM-Luc cells were tested (data not shown). Minimal IFN-gamma secretion was observed when the K562-Luc negative control cell line was tested (bottom panel).

Molecule	IFN-gamma secretion	relative amount of IFN-gamma
B13	induced IFN-gamma secretion	
B8	induced IFN-gamma secretion	highest amounts

System: Raji, SEM, K562-hCD22, Daudi, and Nalm6
Test: Primary T-cell tumor target killing assay
Type: cell-based, human
Conditions: CD22 expressing luciferase target cell lines
Source text: Primary T-cells activated and transduced as described above were mixed with target cell lines stably expressing luciferase at the ratios indicated (FIG. 20A-20F). […] Untransduced T-cells (UTD) lacked the ability to kill target cell lines.

Molecule	target cell killing
B13	dose-dependent target cell killing
B9	dose-dependent target cell killing
B10	dose-dependent target cell killing
B11	dose-dependent target cell killing
B12	dose-dependent target cell killing
